# Assay results reported in the supplement of paper PMC9112550, “Optimization of the antimicrobial peptide Bac7 by deep mutational scanning” (BMC Biology, 2022).
# Tested on: Escherichia coli TOP10
# Experiment: shrunken log2 fold change of peptide-encoding DNA abundance (4.5 h post-induction vs induction); higher = less antimicrobial activity (less host growth inhibition)
# Settings: time post-induction: 4.5 h; library: site-saturation at positions 5, 18, 19, 20
# 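Also: peptides expressed intracellularly from a pBAD plasmid library in pooled LB shake-flask culture, induced with 0.3% L-arabinose, DNA abundance read by NGS, three biological replicates, DESeq2 with apeglm shrinkage.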
row,Sequence,shrunken log2 fold change
1,RRIRLRPPRLPRPRPRPAPFPRP,-0.0923
2,RRIRKRPPRLPRPRPRPHAHPRP,0.428
3,RRIRCRPPRLPRPRPRPWPSPRP,-0.0603
4,RRIRSRPPRLPRPRPRPPQNPRP,0.294
5,RRIRWRPPRLPRPRPRPLVNPRP,-0.0798
6,RRIRPRPPRLPRPRPRPFFSPRP,-0.0993
7,RRIRMRPPRLPRPRPRPKSCPRP,0.839
8,RRIRTRPPRLPRPRPRPGEIPRP,-0.26
9,RRIRPRPPRLPRPRPRPPTFPRP,-0.142
10,RRIRQRPPRLPRPRPRPPSMPRP,-0.234
11,RRIRQRPPRLPRPRPRPETYPRP,-0.213
12,RRIRQRPPRLPRPRPRPRWPPRP,0.616
13,RRIRKRPPRLPRPRPRPGVIPRP,0.251
14,RRIRRRPPRLPRPRPRPYMRPRP,0.044
15,RRIRTRPPRLPRPRPRPTSQPRP,-0.00402
16,RRIRQRPPRLPRPRPRPGALPRP,0.0446
17,RRIRWRPPRLPRPRPRPDMRPRP,0.499
18,RRIRIRPPRLPRPRPRPQCLPRP,-0.47
19,RRIRGRPPRLPRPRPRPMLHPRP,0.526
20,RRIRDRPPRLPRPRPRPTMWPRP,0.176
21,RRIRVRPPRLPRPRPRPKIDPRP,0.124
22,RRIRQRPPRLPRPRPRPLCMPRP,-0.37
23,RRIRPRPPRLPRPRPRPFKWPRP,0.0103
24,RRIRLRPPRLPRPRPRPEKVPRP,-0.0389
25,RRIRVRPPRLPRPRPRPKFHPRP,0.678

row,Sequence,shrunken log2 fold change
1,RRIRLRPPRLPRPRPRPIMYPRP,-0.16
2,RRIRERPPRLPRPRPRPQFWPRP,0.172
3,RRIRMRPPRLPRPRPRPSVFPRP,-0.0403
4,RRIRNRPPRLPRPRPRPPFCPRP,0.19
5,RRIRHRPPRLPRPRPRPWSGPRP,-0.17
6,RRIRDRPPRLPRPRPRPQLIPRP,0.0732
7,RRIRYRPPRLPRPRPRPWTHPRP,-0.00149
8,RRIRTRPPRLPRPRPRPFQDPRP,0.00739
9,RRIRIRPPRLPRPRPRPMHPPRP,0.00185
10,RRIRARPPRLPRPRPRPTDWPRP,0.712
11,RRIRIRPPRLPRPRPRPAFRPRP,2.17
12,RRIRLRPPRLPRPRPRPHLRPRP,-0.151
13,RRIRDRPPRLPRPRPRPRWEPRP,-0.0171
14,RRIRFRPPRLPRPRPRPNEQPRP,0.027
15,RRIRYRPPRLPRPRPRPEGFPRP,-0.487
16,RRIRCRPPRLPRPRPRPTPKPRP,0.877
17,RRIRGRPPRLPRPRPRPCPVPRP,0.197
18,RRIRQRPPRLPRPRPRPLWEPRP,0.025
19,RRIRMRPPRLPRPRPRPRYMPRP,-0.212
20,RRIRHRPPRLPRPRPRPEGPPRP,-0.0401
21,RRIRDRPPRLPRPRPRPPDPPRP,0.931
22,RRIRERPPRLPRPRPRPPLNPRP,-0.192
23,RRIRYRPPRLPRPRPRPSKCPRP,-0.00419
24,RRIRDRPPRLPRPRPRPVSRPRP,0.218
25,RRIRDRPPRLPRPRPRPAWTPRP,-0.0791

row,Sequence,shrunken log2 fold change
1,RRIRIRPPRLPRPRPRPTYFPRP,-0.522
2,RRIRPRPPRLPRPRPRPQLCPRP,0.444
3,RRIRYRPPRLPRPRPRPCPSPRP,0.109
4,RRIRFRPPRLPRPRPRPKKPPRP,-0.0169
5,RRIRCRPPRLPRPRPRPNPKPRP,0.055
6,RRIRCRPPRLPRPRPRPNEMPRP,-0.123
7,RRIRKRPPRLPRPRPRPDFGPRP,0.052
8,RRIRCRPPRLPRPRPRPSFMPRP,-0.688
9,RRIRTRPPRLPRPRPRPDSNPRP,0.0255
10,RRIRDRPPRLPRPRPRPTHTPRP,-0.311
11,RRIRRRPPRLPRPRPRPTESPRP,0.121
12,RRIRARPPRLPRPRPRPTECPRP,0.0171
13,RRIRLRPPRLPRPRPRPIFIPRP,0.606
14,RRIRERPPRLPRPRPRPRSKPRP,0.00172
15,RRIRVRPPRLPRPRPRPMHLPRP,-0.167
16,RRIRKRPPRLPRPRPRPRWWPRP,0.316
17,RRIRDRPPRLPRPRPRPLMWPRP,2.47
18,RRIRKRPPRLPRPRPRPNWQPRP,0.0483
19,RRIRIRPPRLPRPRPRPIIPPRP,-0.072
20,RRIRLRPPRLPRPRPRPGLAPRP,0.164
21,RRIRSRPPRLPRPRPRPNCNPRP,-0.473
22,RRIRTRPPRLPRPRPRPPDPPRP,0.197
23,RRIRQRPPRLPRPRPRPYHTPRP,-0.00448
24,RRIRVRPPRLPRPRPRPGMAPRP,0.183
25,RRIRQRPPRLPRPRPRPQRSPRP,0.0623

row,Sequence,shrunken log2 fold change
1,RRIRIRPPRLPRPRPRPEVFPRP,-0.202
2,RRIRARPPRLPRPRPRPDKSPRP,-0.169
3,RRIRDRPPRLPRPRPRPHCKPRP,0.0223
4,RRIRYRPPRLPRPRPRPPQTPRP,-0.314
5,RRIRLRPPRLPRPRPRPGAWPRP,0.0481
6,RRIRGRPPRLPRPRPRPWCLPRP,-0.262
7,RRIRFRPPRLPRPRPRPPHLPRP,-0.0216
8,RRIRSRPPRLPRPRPRPWWGPRP,0.0289
9,RRIRDRPPRLPRPRPRPRSTPRP,-0.00371
10,RRIRMRPPRLPRPRPRPRQHPRP,0.47
11,RRIRVRPPRLPRPRPRPSHEPRP,-0.225
12,RRIRKRPPRLPRPRPRPNYKPRP,-0.507
13,RRIRNRPPRLPRPRPRPGFAPRP,0.444
14,RRIRWRPPRLPRPRPRPYSHPRP,-1.09
15,RRIRKRPPRLPRPRPRPKSLPRP,0.107
16,RRIRVRPPRLPRPRPRPWREPRP,0.0932
17,RRIRERPPRLPRPRPRPVLSPRP,-0.101
18,RRIRARPPRLPRPRPRPNVHPRP,0.0927
19,RRIRFRPPRLPRPRPRPHFVPRP,-0.176
20,RRIRVRPPRLPRPRPRPMLTPRP,-0.066
21,RRIRNRPPRLPRPRPRPILTPRP,-0.135
22,RRIRFRPPRLPRPRPRPSNCPRP,-0.529
23,RRIRGRPPRLPRPRPRPGNDPRP,0.381
24,RRIRRRPPRLPRPRPRPWMSPRP,0.118
25,RRIRIRPPRLPRPRPRPMIAPRP,-0.101

row,Sequence,shrunken log2 fold change
1,RRIRTRPPRLPRPRPRPEQRPRP,-0.000852
2,RRIRWRPPRLPRPRPRPSWAPRP,0.152
3,RRIRMRPPRLPRPRPRPEGYPRP,2.64
4,RRIRGRPPRLPRPRPRPCMCPRP,0.263
5,RRIRWRPPRLPRPRPRPIIWPRP,-0.269
6,RRIRRRPPRLPRPRPRPSCTPRP,0.0387
7,RRIRPRPPRLPRPRPRPPCRPRP,0.339
8,RRIRHRPPRLPRPRPRPWCMPRP,-0.0194
9,RRIRLRPPRLPRPRPRPSASPRP,0.0218
10,RRIRQRPPRLPRPRPRPWEKPRP,-0.0123
11,RRIRFRPPRLPRPRPRPYPDPRP,0.0764
12,RRIRQRPPRLPRPRPRPVPRPRP,0.829
13,RRIRSRPPRLPRPRPRPFPEPRP,-0.22
14,RRIRYRPPRLPRPRPRPKMMPRP,-1.3
15,RRIRERPPRLPRPRPRPENRPRP,-0.29
16,RRIRTRPPRLPRPRPRPWIDPRP,-0.0368
17,RRIRYRPPRLPRPRPRPEALPRP,-0.23
18,RRIRIRPPRLPRPRPRPMQTPRP,-0.0288
19,RRIRGRPPRLPRPRPRPFNAPRP,-0.132
20,RRIRRRPPRLPRPRPRPHWGPRP,0.291
21,RRIRARPPRLPRPRPRPCRMPRP,-0.353
22,RRIRNRPPRLPRPRPRPLKAPRP,-0.0472
23,RRIRFRPPRLPRPRPRPNVPPRP,-0.0369
24,RRIRYRPPRLPRPRPRPKAYPRP,0.00787
25,RRIRNRPPRLPRPRPRPSKVPRP,0.0123

row,Sequence,shrunken log2 fold change
1,RRIRMRPPRLPRPRPRPETGPRP,0.321
2,RRIRRRPPRLPRPRPRPSVYPRP,-0.0412
3,RRIRTRPPRLPRPRPRPACWPRP,0.281
4,RRIRVRPPRLPRPRPRPFVEPRP,-0.361
5,RRIRYRPPRLPRPRPRPMNAPRP,-0.00745
6,RRIRARPPRLPRPRPRPSLWPRP,0.974
7,RRIRKRPPRLPRPRPRPDPGPRP,0.335
8,RRIRERPPRLPRPRPRPSMDPRP,-0.355
9,RRIRNRPPRLPRPRPRPEWHPRP,-0.285
10,RRIRQRPPRLPRPRPRPTRYPRP,0.511
11,RRIRARPPRLPRPRPRPYYYPRP,-0.602
12,RRIRERPPRLPRPRPRPPDQPRP,0.155
13,RRIRRRPPRLPRPRPRPMLGPRP,0.15
14,RRIRRRPPRLPRPRPRPVDHPRP,0.34
15,RRIRKRPPRLPRPRPRPTHRPRP,1.15
16,RRIRKRPPRLPRPRPRPQPLPRP,0.405
17,RRIRKRPPRLPRPRPRPMILPRP,-0.388
18,RRIRTRPPRLPRPRPRPKQWPRP,0.158
19,RRIRERPPRLPRPRPRPLPCPRP,-0.315
20,RRIRYRPPRLPRPRPRPKPFPRP,0.0506
21,RRIRGRPPRLPRPRPRPTRPPRP,1.16
22,RRIRCRPPRLPRPRPRPFTIPRP,-0.0284
23,RRIRNRPPRLPRPRPRPDYTPRP,0.115
24,RRIRYRPPRLPRPRPRPSPAPRP,0.156
25,RRIRSRPPRLPRPRPRPCRQPRP,-0.184
